We go through six compounds from patent publication US11766414B2, “Compositions, delivery systems, and methods useful in tumor therapy” (Indi Molecular, Inc., priority 2020, dated 2023).

A short description of series [1]: Plasma stability, human plasma.
Protocol: (§3) Plasma was thawed in a 37° C. water bath. Residual clots were removed via centrifugation at 4000 rpm for 5 minutes. The pH of the plasma was adjusted to 7.4 if required. Test articles were diluted to 100 μM by diluting a 1 mM working solution (in DMSO) with 45% methanol in water. To 98 μL of plasma was added 2 μL of the 100 μM solution, resulting in 2 μM final concentration of the test article. Samples were incubated at 37° C. in a water bath. At the indicated time points (0, 10, 30, 60, 120 minutes) 100 μL of 4% H3PO4 was added followed by 800 μL of stop solution (200 ng/mL tolbutamide and 200 ng/mL labetalol in 100% acetonitrile). The samples were centrifuged and the plasma protein-free supernatant (100 μL) was subjected to LC-MS/MS analysis.
A short description of series [2]: Plasma protein binding, CD-1 mouse plasma. The series is classed as in vitro ADME. The conditions noted are these: CD-1 mouse plasma; read-out: Plasma % Bound, Mu (converted). The procedure:
(§1) HTD 96 a/b regenerated cellulose membrane strips with mass cutoff of 12-14 kDa were soaked in ultra-pure water at room temperature for 1 hour. Each swelled membrane was then soaked in 20:80 ethanol:water for 20 minutes.
(§2) Just prior to the experiment, the membranes were re-soaked in ultra-pure water. Plasma was prepared by thawing under cold water. The plasma was centrifuged to remove any clots and pH was adjusted to 7.0-8.0. Test articles and control compounds were diluted to 2 μM. The dialysis device was loaded by transferring 150 μL of the test article (in triplicate) to the donor side. The dialysis device was placed in a humidified incubator at 37° C. with 5% CO2 in a shaking platform that rotated slowly for 4 hours. After incubation, 50 μL of the supernatant was taken from both sides and analyzed by LC-MS/MS.

Series [3] can be described thus: Plasma protein binding, human plasma. The series is classed as in vitro ADME. The conditions noted are these: human, plasma. The procedure:
as §1, §2

Series [4] addresses human recombinant NEP (Homo sapiens, UniProt P08473). Briefly: NEP enzymatic cleavage assay (MALDI, HPLC). The format is biochemical. The conditions noted are these: for cleavage of the test article: 1 nM NEP, MALDI-TOF MS; for in vitro Assay Data (NEP assay): Table 2. The procedure: In order to test the susceptibility of GFK and MVK linkers to NEP-mediated cleavage, the peptide (Folate-hshta-Lys(MPBA)-Gly-Phe-Lys(DOTA) (SEQ ID NO:6)) was incubated with human recombinant NEP and analyzed the solution for the presence of cleaved adducts. MALDI was utilized to monitor the cleavage of a PCC heterobiligand that contains a NEP protease recognizable sequence (G-F-K). The PCC concentration was constant and the NEP concentration was titrated down from 10 nM to 1 nM, 0.1 nM, 0.01 nM, and no NEP. The NEP-mediated cleaved adduct was identified by mass. 10 μM PCC containing the GFK linker was combined with varying amounts of NEP. […] Below 0.1 nM no cleavage was observed. • Folate-hshta-Lys(MPBA)-Gly-Phe-Lys(DOTA) (SEQ ID NO:6) • Molecular weight 2231.42
The NEP-mediated cleavage was also monitored by HPLC. In agreement with the MALDI spectra, the HPLC chromatograms show depletion of the parent brush-border heterobiligand (retention time 17.1 minutes), dose-dependent on the amount of NEP spiked into the sample (10 nM, 1 nM, 0.1 nM, 0.01 nM, and no NEP). An appearance of a new peak (retention time 16.5 minutes) in concert with the depletion of the starting material is presumed to be the cleaved folate-containing peptide.
In order to test the specificity of NEP, a non-cleavable linker (PEG3) was also assayed.
To reduce the radioactive dose to the kidney, Indi ^177Lu-7327 was constructed to incorporate a GFK linker that is susceptible to cleavage by enzymes found predominately in the kidney's brush border. These enzymes cleave off the radionuclide-chelator complex, which is quickly eliminated by the kidney for excretion in the urine. The zinc metalloprotease neprilysin (NEP) is expressed with high abundance in the kidney. […] To confirm NEP-mediated cleavage of the GFK linker in Indi 7327, the peptide was incubated with recombinant human NEP at 37° C. for 1 h and analyzed by matrix-assisted laser desorption/ionization mass spectrometry (MALDI-MS) for the evolution of cleaved adducts (FIG. 42). […] The expected cleaved adduct (mass: 1283.16 m/z) appears in the samples containing 10, 1.0, and 0.1 nM NEP. […] Below 0.1 nM NEP, no cleavage was observed. In addition to confirming the selectivity of NEP for the GFK linker, it is also important to note that the remaining portions of the Indi 7327 were impervious to the enzyme.

Series [5] is described as follows: Plasma stability, CD-1 mouse plasma.
Protocol: as §3
Series [6] deals with mouse plasma proteins. Briefly: Plasma protein binding, CD-1 mouse plasma. The format is in vitro ADME. Particulars: CD-1 mouse plasma. The procedure: as §1, §2
For series [7], the system named is human plasma proteins. Briefly: Plasma protein binding, human plasma. The series is classed as in vitro ADME. The conditions noted are these: human plasma. The procedure: as §1, §2
Series [8] has as its target human serum albumin (Homo sapiens, UniProt P02768). Particulars: read-out: affinity for human serum albumin; cited from earlier work.
The test system of series [9] is OVCAR3 (FOLR1+) tumor bearing NSG mice. Particulars: mouse, in vivo. The procedure:
Female, 7-week-old NSG mice were housed under pathogen-free conditions. Water and food were provided ad libitum. To create mice with FOLR1+ ovarian xenograft tumors, mice were injected subcutaneously with OVCAR3 cells (1×10^7 cells per mouse) resuspended in 50% Matrigel in PBS into the shoulder region. Tumor growth was monitored by caliper measurements. OVCAR3 is a human ovarian adenocarcinoma known to over-express FOLR1.
^68Ga PET imaging was used to study in vivo biodistribution of heterobiligands in non-tumor bearing (healthy) mice and OVCAR3 tumor bearing mice. 100-200 μCi of [^68Ga]DOTA-labeled heterobiligand was administered intravenously (i.v.) via the tail vein of each mouse. […]
Evaluation of a folate-hshta (SEQ ID NO:6) Nterm heterobiligand bearing both an albumin binder and DOTA chelator in PET was a priority, given that DOTA can accommodate both ^68Ga for imaging and ^177Lu for radiotherapy. […] The time-course biodistribution of ^68Ga-labeled folate-hshta-PEG3-Lys(MPBA)-Lys(DOTA) (SEQ ID NO:6) (compound #2809) was calculated to quantify the uptake in major organs including the tumor (FIG. 17). […] Larger tumors (490 mm^3) were also evaluated with the ^68Ga-chelated PET probe.
Biodistribution was initially evaluated by PET imaging, as the time frame for a significant portion of clearance is roughly similar to the time frame of PET imaging experiments. […]

The mark [10] stands for this setting: human plasma, read-out: Plasma % Bound, Hu (converted).

By half-life is commonly meant the time in which the quantity being followed falls by half. A higher half-life goes with slow loss.

Starred links: 1 amine or outer side, 2 acyl side, 3 side chain; linkers in the order of their positions; H or OH if unused. Positions of bridges follow the written chain, without caps; N, C: chain ends. Non-standard residues stand in square brackets, D forms with d. Residues, ends and D or L forms follow the SMILES beside them. Triazole bridges read from a SMILES are 1,4-linked. *: point of attachment. DOTA = O=C(O)CN1CCN(CC(=O)O)CCN(CC(=O)*)CCN(CC(=O)O)CC1; Pteroyl = Nc1nc2ncc(CNc3ccc(C(=O)*)cc3)nc2c(=O)[nH]1; Butanoyl(4-(4-I-phenyl)) = O=C(CCCc1ccc(I)cc1)*; Butanoyl(4-(4-MePh)) = Cc1ccc(CCCC(=O)*)cc1; Lys(N3) = [N-]=[N+]=NCCCC[C@H](N)C(=O)O; γGlu = O=C(O)[C@H](CCC(=O)[*:2])N[*:1]; AEEEA = NCCOCCOCCOCC(=O)O; Pra = C#CC[C@H](N)C(=O)O

Sequence of human recombinant NEP (P08473 whole entry): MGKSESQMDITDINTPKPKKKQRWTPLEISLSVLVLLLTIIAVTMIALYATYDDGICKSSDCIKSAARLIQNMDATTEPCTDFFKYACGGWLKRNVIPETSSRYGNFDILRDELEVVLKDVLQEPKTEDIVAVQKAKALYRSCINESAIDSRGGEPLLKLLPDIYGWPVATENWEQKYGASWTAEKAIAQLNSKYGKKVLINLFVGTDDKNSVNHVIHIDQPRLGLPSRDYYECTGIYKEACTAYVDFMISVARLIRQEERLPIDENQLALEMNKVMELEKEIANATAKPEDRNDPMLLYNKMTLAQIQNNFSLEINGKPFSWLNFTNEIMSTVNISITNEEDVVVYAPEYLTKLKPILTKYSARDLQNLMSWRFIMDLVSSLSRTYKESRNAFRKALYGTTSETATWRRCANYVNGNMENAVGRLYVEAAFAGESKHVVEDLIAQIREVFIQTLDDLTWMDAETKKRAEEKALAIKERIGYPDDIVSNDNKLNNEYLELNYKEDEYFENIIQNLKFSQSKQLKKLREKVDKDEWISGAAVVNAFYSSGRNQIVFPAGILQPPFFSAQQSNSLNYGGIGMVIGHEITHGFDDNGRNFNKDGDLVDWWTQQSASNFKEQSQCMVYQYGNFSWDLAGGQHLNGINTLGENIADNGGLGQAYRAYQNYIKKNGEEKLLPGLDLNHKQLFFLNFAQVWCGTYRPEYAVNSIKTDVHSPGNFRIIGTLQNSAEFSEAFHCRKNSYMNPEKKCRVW

For the compound `C[C@H](O)[C@H]1NC(=O)[C@@H](Cc2c[nH]cn2)NC(=O)[C@@H](CO)NC(=O)[C@@H](Cc2c[nH]cn2)NC(=O)[C@@H](NC(=O)CC[C@H](NC(=O)c2ccc(NCc3cnc4nc(N)[nH]c(=O)c4n3)cc2)C(=O)O)Cc2cn(nn2)CCCC[C@@H](C(=O)N[C@@H](CCCCNC(=O)CCCc2ccc(I)cc2)C(=O)NCC(=O)N[C@@H](Cc2ccccc2)C(=O)N[C@@H](CCCCNC(=O)CN2CCN(CC(=O)O)CCN(CC(=O)O)CCN(CC(=O)O)CC2)C(=O)O)NC(=O)[C@@H](C)NC1=O` [Compound #1307, folate-hshta-Lys(IPBA)-Gly-Phe-Lys(DOTA)] ({Pteroyl-γGlu}-[Pra][dH][dS][dH][dT][dA][Lys(N3)]K(Butanoyl(4-(4-I-phenyl)))GFK(DOTA)-OH; triazole 1-7), the half-life in series [1] and in [5] was greater than 4.82 h throughout. For the same compound, the fraction unbound in series [2] was 0.004; in [3] (setting [10]), 0.005. Further, the “cleavage of the test article” value in series [4] is listed as “complete”. Further, the “in vitro Assay Data (NEP assay)” value in series [4] was “Cleavage of -G-F-K-”.
Take `C[C@@H](O)[C@@H]1NC(=O)[C@H](CCCCN)NC(=O)[C@@H](Cc2c[nH]c3ccccc23)NC(=O)[C@H](Cc2ccccc2)NC(=O)[C@@H](NC(=O)[C@H](N)Cc2ccccc2)CSSC[C@@H](C(=O)N[C@H](CO)[C@@H](C)O)NC1=O` [Octreotide Acetate, reference compound]: in series [6], the “Plasma % Bound, Mu” value was determined as 62.36% and the “Plasma protein binding % Recovery, Mu” value is 84.5%. In series [7], the “Plasma % Bound, Hu” value was 59.41% and the “Plasma protein binding % Recovery, Hu” value is 84.3%.
“GI48-GA: albumin-binding fragment of protein G from Streptococcus strain GI48, SEQ ID NO:33 (LAEAKVLANRELDKYGVSDYYKNLINNAKTVEGVKALIDEILAA)”: the Kd in [8] is 1 nM.
Consider `C[C@H](O)[C@H]1NC(=O)[C@@H](Cc2cnc[nH]2)NC(=O)[C@@H](CO)NC(=O)[C@@H](Cc2cnc[nH]2)NC(=O)[C@@H](NC(=O)CC[C@H](NC(=O)c2ccc(NCc3cnc4nc(N)[nH]c(=O)c4n3)cc2)C(=O)O)Cc2cn(nn2)CCCC[C@@H](C(=O)NCC(=O)N[C@@H](Cc2ccccc2)C(=O)N[C@@H](CCCCNC(=O)CN2CCN(CC(=O)O)CCN(CC(=O)O)CCN(CC(=O)O)CC2)C(=O)O)NC(=O)[C@@H](C)NC1=O` [Indi ^68Ga-7327, metal not drawn] ({Pteroyl-γGlu}-[Pra][dH][dS][dH][dT][dA][Lys(N3)]GFK(DOTA)-OH; triazole 1-7), for which the “kidney uptake (PET)” value in series [9] is recorded as “significant reduction in kidney uptake”.
With `Cc1ccc(CCCC(=O)NCCCC[C@H](NC(=O)COCCOCCOCCNC(=O)[C@@H]2CCCCn3cc(nn3)C[C@H](NC(=O)CC[C@H](NC(=O)c3ccc(NCc4cnc5nc(N)[nH]c(=O)c5n4)cc3)C(=O)O)C(=O)N[C@H](Cc3c[nH]cn3)C(=O)N[C@H](CO)C(=O)N[C@H](Cc3c[nH]cn3)C(=O)N[C@H]([C@H](C)O)C(=O)N[C@H](C)C(=O)N2)C(=O)N[C@@H](CCCCNC(=O)CN2CCN(CC(=O)O)CCN(CC(=O)O)CCN(CC(=O)O)CC2)C(N)=O)cc1` [^68Ga-chelated compound #2809, metal not drawn] ({Pteroyl-γGlu}-[Pra][dH][dS][dH][dT][dA][Lys(N3)][AEEEA]K(Butanoyl(4-(4-MePh)))K(DOTA)-NH2; triazole 1-7), the “accumulation within the tumor” value in series [9] (iv, 200 uCi, 4 h) was ~2.2 % of the injected dose/cc.
With `CSCC[C@H](NC(=O)[C@H](CCCCNC(=O)CCCc1ccc(I)cc1)NC(=O)[C@@H]1CCCCn2cc(nn2)C[C@H](NC(=O)CC[C@H](NC(=O)c2ccc(NCc3cnc4nc(N)[nH]c(=O)c4n3)cc2)C(=O)O)C(=O)N[C@H](Cc2c[nH]cn2)C(=O)N[C@H](CO)C(=O)N[C@H](Cc2c[nH]cn2)C(=O)N[C@H]([C@H](C)O)C(=O)N[C@H](C)C(=O)N1)C(=O)N[C@H](C(=O)N[C@@H](CCCCNC(=O)CN1CCN(CC(=O)O)CCN(CC(=O)O)CCN(CC(=O)O)CC1)C(=O)O)C(C)C` [compound 1306, folate-hshta-Lys(IPBA)-M-V-Lys(DOTA)] ({Pteroyl-γGlu}-[Pra][dH][dS][dH][dT][dA][Lys(N3)]K(Butanoyl(4-(4-I-phenyl)))MVK(DOTA)-OH; triazole 1-7), the half-life in series [1] and in series [5] was greater than 4.82 h throughout. Moreover, the fraction unbound in [2] was 0.0288; in series [3] (setting [10]), 0.0265; in series [3] (species not given, read-out: bound to plasma (converted)), roughly 0.03. The “cleavage of the test article” value in series [4] was “substantial”. Moreover, the “in vitro Assay Data (NEP assay)” value in [4] is listed as “Cleavage of -M-V-K-”.
